Consider one substance from US20070036796A1.

The target in the experiment is human CCR5 (human) (UniProt P51681). In words: cell-based or functional assay.
human CCR5 (human), sequence (P51681 whole entry): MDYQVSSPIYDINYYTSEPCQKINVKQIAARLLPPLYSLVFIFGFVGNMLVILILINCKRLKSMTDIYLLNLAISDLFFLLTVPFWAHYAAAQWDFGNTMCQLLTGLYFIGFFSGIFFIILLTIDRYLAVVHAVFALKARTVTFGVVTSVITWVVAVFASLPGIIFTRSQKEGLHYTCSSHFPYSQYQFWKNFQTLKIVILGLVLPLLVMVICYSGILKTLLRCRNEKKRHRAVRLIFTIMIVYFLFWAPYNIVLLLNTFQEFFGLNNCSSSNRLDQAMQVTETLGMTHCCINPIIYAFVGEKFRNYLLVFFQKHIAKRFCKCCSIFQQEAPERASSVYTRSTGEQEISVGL

Substance “Pharmingen 2D7 (CD 195; Cat. Nr. 555990) (antibody)” registered an IC50, PhenoSenseHIV assay (ViroLogic) using JRCSF strain of 1.4 µg/ml; an IC50, inhibition of HIV growth in human PBMC, JRCSF (p24 ELISA) of 0.271 µg/mL; an IC50, inhibition of HIV growth in human PBMC, Nl-Bal (p24 ELISA) of 0.076 µg/mL.
